Ends that are not written are not given here.
Assays:
[1] = Effect of DGC on blood biochemistry of mice; type: in vivo, C57BL/6J mice; conditions: DGC group, mean of 3 mice
Text: In order to clarify the NIR-II signal in AD brains when in vivo imaging is arisen from the DGC probe that bound to CTGF, we selected 3-month-old APP/PS1 mice representing early-stage AD and the age-matched WT mice as control to performed ex vivo multimodal analysis of the brain sections. […] To exclude the influence of vascular retention, we emptied the cerebral vessels by cardiac perfusion and performed ex vivo imaging of the brains. […] For brain sections made from AD mice after tail vein injection of DGC, the red fluorescence observation and LA-ICP-TOF-MS of DGC, as well as a POD-like catalysis test were performed. […] In Fig. 6c, the colocalization of DGC (red fluorescence) and CTGF (green fluorescence) on the ex vivo brain sections confirmed the specificity of DGC targeting CTGF in vivo. To further identify the cellular target of DGC in the brain of APP/PS1 mice, we carried out immunofluorescence staining on the ex vivo brain sections after tail vein injection of DGC where cell-specific fluorescent antibodies for microglia (Iba 1), neurons (NeuN), vascular endothelial cell (CD31) and reactive astrocytes (GFAP) were applied. In Fig. 6d, […] co-localizes with GFAP-positive active astrocytes and CD31-positive microvessels, but not with neurons or microglia. […] The biosafety of DGC in C57BL/6J mice under the NIR-II imaging condition was evaluated by blood tests (blood cells and biochemical analysis) and organ pathological analysis (H&E staining).

CTGF [2] = target: T1, CTGF (Mus musculus, UniProt P29268); assay: ICP-MS of Au content in DGC-labelled mouse brain sections; set-up: species or system APP/PS1 and wild-type C57BL/6J mice
T1 construct: brain sections of the age-matched wild-type C57BL/6J mice were used as controls; from tissue; host or cells: brain of APP/PS1 transgenic and wild-type C57BL/6J mice (sections, living animal, perfused isolated brain)
T1 sequence (P29268 26-348): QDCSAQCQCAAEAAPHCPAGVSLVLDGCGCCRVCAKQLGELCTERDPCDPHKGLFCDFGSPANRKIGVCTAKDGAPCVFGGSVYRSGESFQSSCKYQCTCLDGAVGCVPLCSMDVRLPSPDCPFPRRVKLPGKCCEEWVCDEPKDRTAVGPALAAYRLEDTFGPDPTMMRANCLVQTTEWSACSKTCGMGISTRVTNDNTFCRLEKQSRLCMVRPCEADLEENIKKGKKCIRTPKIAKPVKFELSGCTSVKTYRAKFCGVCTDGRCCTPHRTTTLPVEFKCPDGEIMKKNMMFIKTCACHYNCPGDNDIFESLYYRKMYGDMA
Protocol: The DGC in the brain section was measured by ICP-MS. Briefly, the brain sections were digested with 5 mL mix solution (HNO3 and H2O2 = 3:1) overnight. Then, each section was digested at a mild boiling temperature until the solution was evaporated to 0.1–0.2 mL and added 5 mL aqua regia (HCl: HNO3 = 3:1) overnight. Then each section was digested at a mild boiling temperature until the solution was evaporated to 0.1– 0.2 mL and diluted by 2% HNO3 and 1% HCl to the final volume.

CTGF [3] = target: T2, CTGF (Homo sapiens, UniProt P29279); assay: ICP-MS of Au content in DGC-labelled human brain sections; set-up: The brain tissue samples of autopsy-confirmed AD patients were obtained from the Chinese Brain Bank Center; from tissue; host or cells: postmortem human brain sections (hippocampus, cortex) of AD patients and healthy controls; ICP-MS (Au content): unit not given here
T2 sequence (P29279 27-349): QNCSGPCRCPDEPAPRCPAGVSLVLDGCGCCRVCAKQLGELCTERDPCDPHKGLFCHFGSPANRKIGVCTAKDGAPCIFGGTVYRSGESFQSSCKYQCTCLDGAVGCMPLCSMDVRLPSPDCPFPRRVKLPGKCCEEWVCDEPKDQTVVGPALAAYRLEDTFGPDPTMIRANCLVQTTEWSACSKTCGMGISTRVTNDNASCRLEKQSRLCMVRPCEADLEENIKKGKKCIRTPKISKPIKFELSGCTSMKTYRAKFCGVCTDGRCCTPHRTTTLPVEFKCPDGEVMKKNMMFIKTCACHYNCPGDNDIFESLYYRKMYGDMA
Protocol: The brain tissue samples of autopsy-confirmed AD patients were obtained from the Chinese Brain Bank Center (CBBC) and Human Brain Bank, Central South University Xiangya School of Medicine. First, the brain sections were air-dried for 15 min at room temperature, followed by immersion in water. 5% H2O2 was applied for 15 min at room temperature. The sections were washed three times with PBS for 5 min each time. Then, tissue repair was performed using trypsin at a temperature of 37 °C for 5 min and washed three times with PBS. We chose 10% sheep serum to block for a duration of 20 min at 37°. Primary antibodies (CTGF antibody and Aβ antibody) were added to the sections overnight at 4 °C. FITC-labeled Goat Anti-Rabbit IgG (H + L) (1: dilution 1:200, Bioss, Cat#bs-0370R-FITC) was applied and incubated at 37 °C for 20 min in darkness. Subsequent washing steps involved rinsing the sections three times with PBS, each time lasting for 5 min while avoiding exposure to light. DAPI staining was performed, taking care to store the samples away from light during the 5-min procedure. Then observed by the CLSM system. Then, we chose the optimal incubation concentration of DGC (200 μM) was used to determine the conditions using DAB Horseradish Peroxidase Color Development Kit. After the brain sections were co-stained by DGC (200 μM) at 4 °C overnight, a DAB chromogenic agent was added to the brain tissue sections to explore whether DGC can catalyze DAB solutions to produce insoluble brown precipitate to attach the brain tissue sections with an optical microscope. Finally, the brain tissue sections were digested with aqua regia to measure the Au content by the ICP-MS system.

ICP-MS Au content per section (CTGF [2]; 3-month-old APP/PS1 mouse brain section incubated with DGC, section 1): 36.3
ICP-MS Au content per section (CTGF [2]; 3-month-old APP/PS1 mouse brain section incubated with DGC, section 2): 50.92
ICP-MS Au content per section (CTGF [2]; 3-month-old APP/PS1 mouse brain section incubated with DGC, section 3): 74.61
ICP-MS Au content per section (CTGF [2]; 9-month-old APP/PS1 mouse brain section incubated with DGC, section 1): 87.62
ICP-MS Au content per section (CTGF [2]; 9-month-old APP/PS1 mouse brain section incubated with DGC, section 2): 82.72
ICP-MS Au content per section (CTGF [2]; 9-month-old APP/PS1 mouse brain section incubated with DGC, section 3): 97.01
ICP-MS Au content per section (CTGF [2]; WT mouse brain section incubated with DGC, section 1): 11.2
ICP-MS Au content per section (CTGF [2]; WT mouse brain section incubated with DGC, section 2): 23.11
ICP-MS Au content per section (CTGF [2]; WT mouse brain section incubated with DGC, section 3): 12.01
Au Content (DGC) per cm^2 by ICP-MS (CTGF [3]; Case 1 (healthy control, Thal 0) brain section, section 1): 0.1533
Au Content (DGC) per cm^2 by ICP-MS (CTGF [3]; Case 1 (healthy control, Thal 0) brain section, section 2): 0.3279
Au Content (DGC) per cm^2 by ICP-MS (CTGF [3]; Case 1 (healthy control, Thal 0) brain section, section 3): 0.1558
Au Content (DGC) per cm^2 by ICP-MS (CTGF [3]; Case 2 (healthy control, Thal 0) brain section, section 1): 0.09047
Au Content (DGC) per cm^2 by ICP-MS (CTGF [3]; Case 2 (healthy control, Thal 0) brain section, section 2): 0.265
Au Content (DGC) per cm^2 by ICP-MS (CTGF [3]; Case 2 (healthy control, Thal 0) brain section, section 3): 0.06474
Au Content (DGC) per cm^2 by ICP-MS (CTGF [3]; Case 3 (AD, Thal 1) brain section, section 1): 0.6218
Au Content (DGC) per cm^2 by ICP-MS (CTGF [3]; Case 3 (AD, Thal 1) brain section, section 2): 0.4537
Au Content (DGC) per cm^2 by ICP-MS (CTGF [3]; Case 3 (AD, Thal 1) brain section, section 3): 0.399
Au Content (DGC) per cm^2 by ICP-MS (CTGF [3]; Case 4 (AD, Thal 1) brain section, section 1): 0.5318
Au Content (DGC) per cm^2 by ICP-MS (CTGF [3]; Case 4 (AD, Thal 1) brain section, section 2): 0.7576
Au Content (DGC) per cm^2 by ICP-MS (CTGF [3]; Case 4 (AD, Thal 1) brain section, section 3): 0.7155
Substance: DGC: CTGF-targeting peptide-coated gold nanocluster: one Au26 gold nanocluster coated by eight DAG cyclic peptides, NIR-II and red fluorescence (CDAGRKQKC; also: cyclic peptide, ring not given here, eight peptides on one Au26 nanocluster via Cys Au-S bonds)
Urea (UREA) [1]: 9.62 ± 1.25
Alanine aminotransferase (ALT) ([1]; in U/L (unit assumed)): 32.8 ± 4.26
Alkaline phosphatase (ALP) ([1]; in U/L (unit assumed)): 220.7 ± 27.07
Aspartate aminotransferase (AST) ([1]; in U/L (unit assumed)): 120.2 ± 20.04
Creatinine (CREA) ([1]; in µmol/L (unit assumed)): 22.67 ± 1.98
ICP-MS (Au content) (CTGF [3]; AD 1, Cortex section stained with DGC): 16.9799
ICP-MS (Au content) (CTGF [3]; AD 1, Hippocampus section stained with DGC): 24.3713
ICP-MS (Au content) (CTGF [3]; AD 2, Cortex section stained with DGC): 28.448
ICP-MS (Au content) (CTGF [3]; AD 2, Hippocampus section stained with DGC): 30.5308
ICP-MS (Au content) (CTGF [3]; HC 1, Cortex section stained with DGC): 3.7846
ICP-MS (Au content) (CTGF [3]; HC 1, Hippocampus section stained with DGC): 2.83
ICP-MS (Au content) (CTGF [3]; HC 2, Cortex section stained with DGC): 3.7846
ICP-MS (Au content) (CTGF [3]; HC 2, Hippocampus section stained with DGC): 11.6586
